Consider 1 molecule from patent US11344504 (MODERNATX, dated 2022).

This assay has as its target T1, OX40 receptor on mouse CD4+ T-cells (mouse, UniProt P47741 20-272).
T1 sequence (looked up): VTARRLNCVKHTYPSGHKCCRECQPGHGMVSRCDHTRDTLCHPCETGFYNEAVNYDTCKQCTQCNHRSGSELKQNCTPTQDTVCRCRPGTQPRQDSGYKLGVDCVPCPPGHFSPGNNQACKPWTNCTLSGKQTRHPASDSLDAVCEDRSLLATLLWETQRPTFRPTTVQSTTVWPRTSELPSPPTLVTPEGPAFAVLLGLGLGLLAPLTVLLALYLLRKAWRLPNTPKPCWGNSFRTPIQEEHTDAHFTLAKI
Kind of assay: cell-based or functional assay.

B1: murine OX40L polypeptide expressed on the surface of B16F10 cells treated with mOX40L_miR-122 mRNA (ligand)
chain: MEGEGVQPLDENLENGSRPRFKWKKTLRLVVSGIKGAGMLLCFIYVCLQLSSSPAKDPPIQRLRGAVTRCEDGQLFISSYKNEYQTMEVQNNSVVIKCDGLYIIYLKGSFFQEVKIDLHFREDHNPISIPMLNDGRRIVFTVVASLAFKDKVYLTVNAPDTLCEHLQINDGELIVVQLTPGYCAPEGSYHSTVNQVPL
B1: the “mouse IL-2 production by CD4+ T-cells co-cultured with OX40L-expressing B16F10 cells, fold over control (mock treated or non-translated mRNA)” value is approximately 2 fold.
